System: MS2 coat protein
Assay: apparent KD of MS2 coat protein; higher = weaker reporter binding
Details: Eterna round: R107
Procedure, shortened: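 For every design, apparent KD is the median of normalised binding-curve fits from its clusters. The RNA switches were transcribed on-chip from Illumina sequencing clusters and titrated with SNAP-549-labelled MS2 coat protein (twofold steps, 0.7 or 1.5 nM to 3 µM; 0.8–1.5 h to 10–20 min per step). Titrations used 100 mM Tris-HCl pH 7.5, 80 mM KCl, 4 mM MgCl2, without or with constant ligand.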

[1] = input ligand: theophylline 20 uM
[2] = input ligand: tryptophan 2.4 mM
[3] = input ligand: theophylline 2 mM

Sequence	apparent KD of MS2 coat protein (input ligand: arginine 13.2 mM)	apparent KD of MS2 coat protein [1]	apparent KD of MS2 coat protein [2]	apparent KD of MS2 coat protein [3]	apparent KD of MS2 coat protein (input ligand: none)
CAGCCUGAUUGGUAAAUCCCUCAUCGUGAUACCAGUCGAGUGAUCGACCCUUGGCAGCACAUGAGGAUCACCCAUGUGCGCGUAA [Raisener]	22 nM	34.9 nM	24 nM	–	–
AGUGCUACGUGUAAUCAAAGAGAACCAGAUACCAGAUUAGCAUACAUCCCUUGGCAGCUGCAUACAUGAGGAUCACCCAUGUCAG [theeternabot_exclusion_MS2_Theo_A_31]	26.5 nM	38.4 nM	31.8 nM	–	–
UUAUAUUAUCGAAGGAGCGUCACAUGAGGAUCACCCAUGUACAUGAGGAUCACCCAUGUGUGGCAGGUAGGUCGCGAUAUAUAAC [Exclusion Arginine B GF9]	120 nM	250 nM	327 nM	301 nM	–
ACGUAAAGCAGAAGGAGCGUCUUCAAUUUACAUGAGGAUCACCCAUGUUUUGUGAUCAUAUGACAGGUAGGUCGCUGAAGUACGA [JR_SSArginiB_Sub002]	85.9 nM	152 nM	123 nM	141 nM	–
UGGGUACAUGAGGAUCACCCAUGUACUGAAGGAGCGAGAAAUAACUCAGGUAGGUCGCAGACAUGAGGAUCACCCAUGUAAUAAA [Exclusion Arginine A GF 10]	16 nM	23.4 nM	18 nM	22.5 nM	18 nM
ACAUGAGGAUCACCCAUGUACAUAAGGGAAGGAGCGCGGUGAAACGCAGGUAGGUCGCCCAUAAUAACAAACAUUAAAUUCAUGU [LeftA2]	28 nM	18.6 nM	16.6 nM	17.9 nM	14.3 nM
GAGCUGAUGUAGAGCUUAUAUAAGAGAGAUACCAGUACAGAAAUGUACCCUUGGCAGCUCAACUUUACAUGAGGAUCACCCAUGU [Ex Theophylline A 20]	12.3 nM	16 nM	18.1 nM	23.6 nM	12.6 nM
UCGGACAUGAGGAUCACCCAUGUAAAUCCUCGAGGACCGGUACGGCCGCCACUCGAACGAGUGGCGCGCGAGUGCGCACUCGCGC [aFa]	22.2 nM	57.9 nM	26.6 nM	35.8 nM	33.2 nM
GUCUCUGAGAGAAGGAGCGUGAAGACAUGAGGAUCACCCAUGUAGAGGCGCCGAAGGCGUUCGCAGGUAGGUCGCUCUCAGAGAC [#1 Same State - Arginine B Attempt #20 (HarryS)]	15.2 nM	23.8 nM	18.4 nM	17.5 nM	15.5 nM
UAUAUAUACUCGGCCGCCACUGAGAGAGUCAUGUAAACAUGAGGAUCACCCAUGUAAUAUAUAUACAGGACCGGGAGUAUAUGAA [4.B]	11.8 nM	17.7 nM	–	15.5 nM	–
GGAUAUGGUGAAAGAGAGAAGAGAGAUGAUACCAGUAAGAGAAGAUGCCCUUGGCAGCAUAGAGACAUGAGGAUCACCCAUGUAA [solution]	12 nM	25.2 nM	15.6 nM	24.3 nM	22.9 nM
ACAUGAGUGGAUAAUAAAUAAGAAGGCGAAGGAGCGUGAAGAAUCACAGGUAGGUCGCGCAAAAUACAUGAGGAUCACCCAUGUU [JR_Nu_ExcArginiA_Sub031]	22.5 nM	35.3 nM	25.9 nM	29.8 nM	27.6 nM
CAGCAACAAUUGGAUACCAGCCAUUACAGGUAUCAUUAUAACAUGAGGAUCACCCAUGUAGGCCCUUGGCAGCCAUUGGUGUAAG [theeternabot_exclusion_MS2_Theo_B_22]	27.5 nM	69 nM	40.5 nM	–	–
AUUAUCAUGGUCAUAUAUAUUUCGUCAGAUACCAGACUAGAUAUAGUCCCUUGGCAGCUGUUACAUGAGGAUCACCCAUGUUAUU [JR_ExcTheophyA_Sub017]	32.2 nM	80.3 nM	96.3 nM	–	–
AGGACGGUCGGAAGGAGCGGUACAUGAGGAUCACCCAUGUACCUCUGGGCAUCCGUAGUGUGCCAGGUAGGUCGCCGAUUGCGGG [Lareerra]	15.7 nM	19.5 nM	11.8 nM	16.5 nM	12 nM
AGAGCAUUGACGGCCGCCACUCAUGUCACAUGAGGAUCACCCAUGUGAUGGGUGAUCGCCCGGUUGAGGACCGGGUCAAUGCUCA [Omei Tryp SS B v2]	42.9 nM	123 nM	–	121 nM	–
CGGUCGGUCGGUCGGUGAUUAUGGGAUGAAGGAGCGUGGGAAGCUACAGGUAGGUCGCAUCCGAAACAUGAGGAUCACCCAUGUU [#21 Same State - Arginine A]	24.6 nM	26.8 nM	18.5 nM	21.3 nM	21 nM
CUAUAAGUACCGGUCCUCAGAUCCUCAUGACGAGGACCGGUACGGCCGCCACUCGAAACAUGAGGAUCACCCAUGUAAUAAUAUU [Brourdmod10]	19 nM	31.5 nM	–	24.2 nM	–
UGACAUUGCUCAGAUACCAGACAUGAGGAUCACCCAUGUGCCAAACGUACAAUAAUAAAUGUCCCUUGGCAGCUGAGCAAUGUCU [TheoBX 14 #MS2Left #Theo2]	13.4 nM	17.3 nM	11.6 nM	–	–
GCCUCCAGCCGAAGGAGCGCUAGAAGGUGACAUGAGGAUCACCCAUGUGUGUGAUGUGGCUAGCAGGUAGGUCGCGGAGGAGGUA [Exclusion - Arginine B (Freestyle 21)]	118 nM	134 nM	92 nM	111 nM	99.7 nM

Sequence	apparent KD of MS2 coat protein (input ligand: arginine 13.2 mM)	apparent KD of MS2 coat protein [1]	apparent KD of MS2 coat protein [2]	apparent KD of MS2 coat protein [3]	apparent KD of MS2 coat protein (input ligand: none)
UCGUGUAUAACGGAUACCAGUGAGAAGGAUACAUGAGGAUCACCCAUGUGAGUUGAUCCACACCCUUGGCAGCUGUAUAUAUCUA [alamullin]	103 nM	468 nM	290 nM	–	–
AGGACCAGGAACAUGGGUGAACUGGUCCAACGAGGACCGGUACGGCCGCCACUCGAAUAAACAUGAGGAUCACCCAUGUAAUAAU [T''-M-T'-T-MS2]	83.3 nM	296 nM	210 nM	442 nM	327 nM
AUACAUGAGGAUCACCCAUGUUAUAGUGAAGGAGCGACAUUUAGGUCAGGUAGGUCGCACUAUUGAAUUAUUAUCCUUAUUUCUU [JR_ExcArginiA_Sub020]	16.1 nM	22 nM	15.7 nM	15.5 nM	14 nM
GCUGUUGCGGUGAGGUAUCCGGCUGUGGAAGGAGCGCGGAAUGCCGCAGGUAGGUCGCCACAUGAGGAUCACCCAUGUCGAUAUA [Atzalama]	25.6 nM	45.2 nM	21.2 nM	35 nM	27.2 nM
AGCGGAACGGAAGGGUCCCGAAAUUGUGAUACCAGCCUUGAAUCCGGCCCUUGGCAGCACAUGAGGAUCACCCAUGUACUGCGGU [Arimaed]	11.4 nM	20.7 nM	13.1 nM	–	–
CAAAACCUUACAGAUACCAGCACAUGAGGAUCACCCAUGUAUUGGACACUUCGCUCAUCGUGCCCUUGGCAGCUGUGGGACGAGG [Tiatenan]	30.3 nM	132 nM	77.6 nM	–	–
AUACAUGAGGAUCACCCAUGUCAUACAGAAGGAGCGUCAUAUUAGACAGGUAGGUCGCUGUAAUUUUUAUUAUUCUUUAUGUAUU [JR_Nu_ExcArginiA_Sub026]	21.9 nM	33.5 nM	26.1 nM	26.9 nM	26 nM
GGGCAAGAGGGAAGGAGCGUCGGCUGGGUAACAUGAGGAUCACCCAUGUAGCACAUGGUGUGGCAGGUAGGUCGCCCUCUGCCCU [SS-ArgB9]	71.1 nM	153 nM	103 nM	133 nM	102 nM
GCGCGGCGAGUGCGGCGUGUUCCGCUCCGUCGAGGACCGGUACGGCCGCCACUCGACAUGAGGAUCACCCAUGUCGCCGCGCGUC [Exclusion - Tryptophan A Attempt #1]	12.6 nM	48.6 nM	–	19.2 nM	–
GACUAUAUGAUAUGUCAGAAAUCCUCGAAACGAGGACCGGUACGGCCGCCACUCGAGUGAUAAACAUGAGGAUCACCCAUGUAAA [Tryp A Ex t2]	21 nM	28 nM	–	27.7 nM	–
CUCGGUUGAUCCUAGCUGCCGAGAGGUGAUACCAGCAUCGAAAGAUGCCCUUGGCAGCACCAACAUGAGGAUCACCCAUGUAAUA [(MT)''-(M)'-(T')-(Theo)-(Ms2)_Design1/22_5]	30.2 nM	156 nM	30.1 nM	–	–
AUAAGUACGUCAGAUACCAGACAGCCAGACUUACAUGAGGAUCACCCAUGUGGAUGGACGGUCCCUUGGCAGCUGGCCGCAAAAG [Isedgeor]	172 nM	128 nM	216 nM	–	–
UGUAUGUGAUCUGAUACCAGUCCAACUGGUAAAAUAUGAGGAUCACCCAUAUAAAAUUGGGACCCUUGGCAGCAGAUCGCAUACU	108 nM	632 nM	492 nM	129 nM	265 nM
AUGUCGUUGAAUACAGCGGCAUGGAGUGAUACCAGAAUGAUCAAAUUCCCUUGGCAGCAUCACAUGAGGAUCACCCAUGUUCGAU [SSTheo A #16]	22.2 nM	33.2 nM	40.9 nM	–	–
CCUAUGACAUGAGGAUCACCCAUGUUGGAUACCAGCGCAUGAGGACGCCCUUGGCAGCCAAUGAACAUGAGGAUACAUGAGGAUC [Same State Theophylline A 4]	30.2 nM	69.7 nM	41.6 nM	–	–
GAUGAACUAUUUGAUACCAGACUACAUGAGGAUCACCCAUGUGUGUUAAUUUUUCAGUCAGUCCCUUGGCAGCAAAUAGUUUAUC [XTheo B #2]	42.2 nM	70.7 nM	32.1 nM	–	–
CACGAAAGAUCGGCCGCCACUAACCUGUGUGUACUAGCACAUGAGGAUCACCCAUGUUCUUGCGUUAGGACCGGGAUUGAGCGUG [#04 Exclusion Tryptophan B]	20.9 nM	30.7 nM	–	27.5 nM	–
GCACCAGGUACGGAUACCAGCUAUAGGCACAGAGGAGGACAUGAGGAUCACCCAUGUGAUGGCCCUUGGCAGCUGUACCUGGUGC [EThB NP+V+V2 #3]	8.89 nM	23.2 nM	10.6 nM	171 nM	12.9 nM
GGUUACUCUACGGCCGCCACUGUAAUGUAAAGAUACCUGUACAUGACAUGAGGAUCACCCAUGUGCAGGACCGGGUAGUGUAACC [Tryptophan B 19]	50.6 nM	93.6 nM	19.8 nM	70 nM	61.6 nM
